This note sets out measurements from patent publication US20090227489A1 (UNIVERSITY OF SOUTH FLORIDA A FLORIDA, published 2009).

This data set concerns the molecule itself. In words: EMSA supershift, hSIE probe, nuclear extracts of Stat3β-transfected B16 cells. The text has this:
EGF-induced Stat3 binding activity in NIH3T3 (lane 4) was used as a positive control. By supershift analysis with antibody that recognizes Stat3 but not Stat3β or antibody that recognizes Stat3β but not Stat3, it was shown that there were Stat3-Stat3 homodimers in mock-transfected B16 cells and empty vector-transfected B16 cells. Overexpression of Stat3β in Stat3β-transfected B16 cells results in mostly Stat3β-Stat3β homodimer formation.
In general terms: Mobility shift assays separate free from complexed probe on a gel.

B1: Stat3β, dominant-negative Stat3 variant (ectopic, from pIRES-Stat3β) (other)
chain: AQWNQLQQLDTRYLEQLHQLYSDSFPMELRQFLAPWIESQDWAYAASKESHATLVFHNLLGEIDQQYSRFLQESNVLYQHNLRRIKQFLQSRYLEKPMEIARIVARCLWEESRLLQTAATAAQQGGQANHPTAAVVTEKQQMLEQHLQDVRKRVQDLEQKMKVVENLQDDFDFNYKTLKSQGDMQDLNGNNQSVTRQKMQQLEQMLTALDQMRRSIVSELAGLLSAMEYVQKTLTDEELADWKRRQQIACIGGPPNICLDRLENWITSLAESQLQTRQQIKKLEELQQKVSYKGDPIVQHRPMLEERIVELFRNLMKSAFVVERQPCMPMHPDRPLVIKTGVQFTTKVRLLVKFPELNYQLKIKVCIDKDSGDVAALRGSRKFNILGTNTKVMNMEESNNGSLSAEFKHLTLREQRCGNGGRANCDASLIVTEELHLITFETEVYHQGLKIDLETHSLPVVVISNICQMPNAWASILWYNMLTNNPKNVNFFTKPPIGTWDQVAEVLSWQFSSTTKRGLSIEQLTTLAEKLLGPGVNYSGCQITWAKFCKENMAGKGFSFWVWLDNIIDLVKKYILALWNEGYIMGFISKERERAILSTKPPGTFLLRFSESSKEGGVTFTWVEKDISGKTQIQSVEPYTKQQLNNMSFAEIIMGYKIMDATNILVSPLVYLYPDIPKEEAFGKYCRPESQEHPEADPGAAPYLKTKFICVTFIDAVWK
notes: ID; NO:3; NO:4'; It was expressed in B16 cells from pIRES-Stat3β and assayed in nuclear extracts; also called Stat3beta; ST3β
For the protein B1, the binding result was “binds”.
